In US20140227729:

Columns and labels:
[1] = molecular target: T1, Ndm, two-subunit N-demethylase component purified from Pseudomonas putida CBB5 (UniProt H9N289)
T1 sequence 1: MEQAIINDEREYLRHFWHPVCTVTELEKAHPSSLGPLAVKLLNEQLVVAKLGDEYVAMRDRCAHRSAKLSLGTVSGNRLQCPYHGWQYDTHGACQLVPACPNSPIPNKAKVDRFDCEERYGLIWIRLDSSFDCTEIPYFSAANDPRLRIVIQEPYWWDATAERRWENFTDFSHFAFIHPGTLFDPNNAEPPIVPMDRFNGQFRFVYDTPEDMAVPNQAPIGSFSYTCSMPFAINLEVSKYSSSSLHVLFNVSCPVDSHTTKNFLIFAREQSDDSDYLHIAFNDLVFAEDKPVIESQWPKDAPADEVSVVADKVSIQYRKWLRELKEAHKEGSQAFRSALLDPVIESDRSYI
T1 sequence 2: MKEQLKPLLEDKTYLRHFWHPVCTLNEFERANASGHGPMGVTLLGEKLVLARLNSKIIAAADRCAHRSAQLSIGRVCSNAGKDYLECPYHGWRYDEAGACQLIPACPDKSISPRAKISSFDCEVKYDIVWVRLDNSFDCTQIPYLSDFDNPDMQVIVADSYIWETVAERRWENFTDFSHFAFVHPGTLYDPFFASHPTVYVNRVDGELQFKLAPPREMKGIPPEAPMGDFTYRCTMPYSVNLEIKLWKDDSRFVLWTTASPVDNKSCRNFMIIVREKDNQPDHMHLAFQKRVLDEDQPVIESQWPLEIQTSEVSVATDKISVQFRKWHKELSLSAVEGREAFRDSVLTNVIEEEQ

NdmA-His6, H9N289 = molecular target: T2, NdmA-His6, H9N289
T2 chain: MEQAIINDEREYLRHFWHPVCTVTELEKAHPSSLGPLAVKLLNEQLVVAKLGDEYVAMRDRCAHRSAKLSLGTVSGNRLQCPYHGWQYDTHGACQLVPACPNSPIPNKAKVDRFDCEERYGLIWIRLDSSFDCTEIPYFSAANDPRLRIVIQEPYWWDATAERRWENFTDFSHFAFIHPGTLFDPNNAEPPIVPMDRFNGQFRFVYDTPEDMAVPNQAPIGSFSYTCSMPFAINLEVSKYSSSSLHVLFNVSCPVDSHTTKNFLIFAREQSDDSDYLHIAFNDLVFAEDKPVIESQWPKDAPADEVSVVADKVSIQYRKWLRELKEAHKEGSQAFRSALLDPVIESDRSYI

NdmB-His6, H9N290 = molecular target: T3, NdmB-His6, H9N290
T3 chain: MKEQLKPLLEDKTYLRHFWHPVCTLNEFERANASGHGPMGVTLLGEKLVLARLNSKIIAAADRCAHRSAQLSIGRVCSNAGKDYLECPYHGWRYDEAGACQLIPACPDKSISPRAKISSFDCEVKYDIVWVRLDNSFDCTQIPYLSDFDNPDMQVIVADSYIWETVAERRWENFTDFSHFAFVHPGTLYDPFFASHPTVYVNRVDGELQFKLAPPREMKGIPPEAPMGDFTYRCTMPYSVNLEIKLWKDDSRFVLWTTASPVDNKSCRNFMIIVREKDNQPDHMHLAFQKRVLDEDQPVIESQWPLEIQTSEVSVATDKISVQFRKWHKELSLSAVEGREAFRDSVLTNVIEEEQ

[2] = molecular target: T4, Ndm, two-subunit N-demethylase component purified from Pseudomonas putida CBB5, H9N289
T4 chain 1: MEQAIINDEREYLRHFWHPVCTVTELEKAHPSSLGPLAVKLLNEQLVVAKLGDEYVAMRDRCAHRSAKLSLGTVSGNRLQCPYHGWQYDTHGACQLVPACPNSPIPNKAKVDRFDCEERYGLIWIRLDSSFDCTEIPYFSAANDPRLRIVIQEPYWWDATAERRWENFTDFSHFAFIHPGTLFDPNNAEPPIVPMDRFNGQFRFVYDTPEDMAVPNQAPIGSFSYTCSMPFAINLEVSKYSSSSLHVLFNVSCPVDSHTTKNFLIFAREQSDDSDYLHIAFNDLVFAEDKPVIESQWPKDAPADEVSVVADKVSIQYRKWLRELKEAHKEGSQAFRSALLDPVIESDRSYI
T4 chain 2: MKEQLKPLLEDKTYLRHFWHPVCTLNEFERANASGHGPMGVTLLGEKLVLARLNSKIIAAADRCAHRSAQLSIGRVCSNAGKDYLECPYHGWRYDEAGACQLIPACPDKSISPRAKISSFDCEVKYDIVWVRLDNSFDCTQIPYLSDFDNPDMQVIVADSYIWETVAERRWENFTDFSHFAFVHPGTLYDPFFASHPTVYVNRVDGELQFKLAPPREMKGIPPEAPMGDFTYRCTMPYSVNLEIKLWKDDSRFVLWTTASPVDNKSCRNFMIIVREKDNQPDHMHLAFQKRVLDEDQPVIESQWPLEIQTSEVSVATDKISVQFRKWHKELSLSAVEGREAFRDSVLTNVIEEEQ

Molecule: Ccr, reductase component with cytochrome c reductase activity (partially purified fraction from Pseudomonas putida CBB5)
- N-demethylase activity [1]: No N-demethylase activity was observed when purified Ndm was assayed without the Ccr fraction

B1: His6-NdmD (protein)
chain: HHHHHHSSGLVPRGSHMNKLDVNQWFPIATTEDLPKRHVFHATLLGQEMAIWRDDSGSVNAWENRCPHRGLNTLGANTGNELRCQYHGWTYESGTGGCTFVPAHRDAPPPNAARVNTFPVREKHGFIWTTLGQPPGEPISILDDAQLVNAVKTNLHSVVIDADIDGVVSVLRQNLSAFIDVFGAASAEDLHLKSMLQDRGILVTRSGSIAIHFYMQRSTISKCVVHAQVLTPGRPGYELQKNYSYAMNVIRRAAEAVATDLISITDISDQTIEKLEVVRENMTKAPPTHYICEVVTRTQETGDINSYWLKPIGYPLPAFSPGMHISITTPEGSIRQYSLVNGPDERESFIIGVKKEIGSRGGSRSMHEDVKVGTQLKVTLPRNGFPLVQTRKHPILVAGGIGITPILCMAGALDQQGSSYEIHYFARAFEHVPFQDRLTALGDRLNVHLGLGPDETRAKLPDIMEIHNAQDVDVYTCGPQPMIETVSAVALAHGIAEESIRFEFFSKKNDVPVSDEEYEVELKKTGQIFTVSPGSTLLQACLDNDVRIEASCEQGVCGTCITPVVSGDLEHHDTYLSKKERESGKWIMPCVSRCKSKKIVLDL
- N-demethylation of caffeine to theobromine (HPLC) (NdmA-His6, H9N289): when NdmA-His6 was incubated with His6-NdmD, caffeine, NADH, and exogenous Fe^2+, caffeine was stoichiometrically demethylated at N1 to theobromine
- N-demethylation of theobromine to 7-methylxanthine (HPLC) (NdmB-His6, H9N290): NdmB-His6 with His6-NdmD, theobromine, NADH, and Fe^2+ resulted in stoichiometric demethylation at N3 of theobromine to 7-methylxanthine

B2: Reductase of Pseudomonas sp. 9816 naphthalene dioxygenase (protein)
chain: MELLIQPNNRIIPFSAGANLLEVLRENGVAISYSCLSGRCGTCRCRVIDGSVIDSGAENGQSNLTDKQYVLACQSVLTGNCAIEVPEADEIVTHPARIIKGTVVAVESPTHDIRRLRVRLSKPFEFSPGQYATLQFSPEHARPYSMAGLPDDQEMEFHIRKVPGGRVTEYVFEHVREGTSIKLSGPLGTAYLRQKHTGPMLCVGGGTGLAPVLSIVRGALKSGMTNPILLYFGVRSQQDLYDAERLHKLAADHPQLTVHTVIATGPINEGQRAGLITDVIEKDILSLAGWRAYLCGAPAMVEALCTVTKHLGISPEHIYADAFYPGGI
- N-demethylase activity [2]: Ndm did not function in the presence of the reductase and ferredoxin components of Pseudomonas sp. 9816 naphthalene dioxygenase

B3: Spinach ferredoxin reductase (protein)
chain: QIASDVEAPPPAPAKVEKHSKKMEEGITVNKFKPKTPYVGRCLLNTKITGDDAPGETWHMVFSHEGEIPYREGQSVGVIPDGEDKNGKPHKLRLYSIASSALGDFGDAKSVSLCVKRLIYTNDAGETIKGVCSNFLCDLKPGAEVKLTGPVGKEMLMPKDPNATIIMLGTGTGIAPFRSFLWKMFFEKHDDYKFNGLAWLFLGVPTSSSLLYKEEFEKMKEKAPDNFRLDFAVSREQTNEKGEKMYIQTRMAQYAVELWEMLKKDNTYFYMCGLKGMEKGIDDIMVSLAAAEGIDWIEYKRQLKKAEQWNVEVY
- N-demethylase activity [2]: Ndm did not couple with ferredoxin reductase plus ferredoxin from spinach
